# Measurements published in paper PMC9040831 (mBio, 2022).
# Residue numbers refer to the chain shown, from its start. Names and notes keep the numbering of the source.
# T1: AmtB (EcAmtB) (Escherichia coli, UniProt P69681)
# T1 construct: AmtB(His)6 from pET22b(+), expressed in E. coli C43, purified, reconstituted into liposomes; homotrimer; 1U7G for the simulations only
# T1 sequence (P69681 23-428): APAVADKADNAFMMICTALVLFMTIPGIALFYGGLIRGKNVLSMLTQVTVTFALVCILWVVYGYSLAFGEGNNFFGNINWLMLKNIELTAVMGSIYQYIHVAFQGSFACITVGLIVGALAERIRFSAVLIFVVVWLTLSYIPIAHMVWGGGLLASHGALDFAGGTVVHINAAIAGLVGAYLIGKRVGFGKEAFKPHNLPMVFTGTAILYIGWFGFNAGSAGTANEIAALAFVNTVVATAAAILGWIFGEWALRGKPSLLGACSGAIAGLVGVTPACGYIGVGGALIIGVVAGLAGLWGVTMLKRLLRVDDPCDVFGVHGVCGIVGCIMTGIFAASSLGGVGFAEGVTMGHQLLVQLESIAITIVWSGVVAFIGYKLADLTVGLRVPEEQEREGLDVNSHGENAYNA
# B1: AmtB (EcAmtB) (Escherichia coli K-12) (protein)
# chain: T1 sequence (P69681 23-428)
# notes: AmtB(His)6 from pET22b(+), expressed in E. coli C43, purified, reconstituted into liposomes; homotrimer; 1U7G for the simulations only
# B2: AmtB (EcAmtB) (Escherichia coli K-12; H190E) (protein)
# chain: T1 sequence (P69681 23-428) with H168E
# notes: as for B1
# B3: AmtB (EcAmtB) (Escherichia coli K-12; H190D) (protein)
# chain: T1 sequence (P69681 23-428) with H168D
# notes: as for B1
# Assays:
# AmtB (EcAmtB) = target: T1, AmtB (EcAmtB); assay: solid supported membrane electrophysiology (SSME), proteoliposomes; format: biochemical; conditions: read-out: Ammonium; transport; maximum transient current amplitude
# Description: (§1) solid supported membrane electrophysiology (SSME), proteoliposomes on AmtB (EcAmtB)
# [1] = substrate: CN; assay: as above; format: biochemical, Escherichia coli; conditions: transport; maximum transient current amplitude
# Description: as §1
# purified protein = substrate: N; assay: purified protein; conditions: transport; maximum transient current amplitude
Km (AmtB (EcAmtB)),Molecule,Km [1],Km (purified protein)
0.8 ± 0.1 mM,N [ammonium],–,–
–,B1,49.86 ± 4.76 mM,–
–,B2,86.00 ± 9.46 mM,12.87 ± 7.79 mM
–,B3,55.09 ± 12.67 mM,14.02 ± 4.08 mM
